Patent publication US7528244

Target: T1, caspase-3, P42574
T1 chain: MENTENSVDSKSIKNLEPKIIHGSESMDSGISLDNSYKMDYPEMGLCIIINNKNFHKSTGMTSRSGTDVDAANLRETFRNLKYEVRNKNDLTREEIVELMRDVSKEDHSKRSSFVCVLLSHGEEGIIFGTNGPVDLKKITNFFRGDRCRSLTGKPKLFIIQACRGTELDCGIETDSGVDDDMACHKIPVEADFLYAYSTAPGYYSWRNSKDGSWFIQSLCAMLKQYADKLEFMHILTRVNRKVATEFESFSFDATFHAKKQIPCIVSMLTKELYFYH

B1: caspase-8 (217-479) (protein)
chain: SESQTLDKVYQMKSKPRGYCLIINNHNFAKAREKVPKLHSIRDRNGTHLDAGALTTTFEELHFEIKPHDDCTVEQIYEILKIYQLMDHSNMDCFICCILSHGDKGIIYGTDGQEAPIYELTSQFTGLKCPSLAGKPKVFFIQACQGDNYQKGIPVETDSEEQPYLEMDLSSPQTRYIPDEADFLLGMATVNNCVSYRNPAEGTWYIQSLCQSLRERCPRGDDILTILTEVNYEVSNKDDKKNMGKQMPQPTFTLRKKLVFPSD
  processing of 35S-labeled caspase-3 precursor by in vitro translated protein: In vitro translated Casper (192-480) could not process caspase-3, whereas in vitro translated caspase-8 (217-479) could
